# In IntAct's records for PubMed 20947020:
# B1: AP-2 complex subunit mu (Rattus norvegicus (Rat)), P84092 (parent)
# chain: MIGGLFIYNHKGEVLISRVYRDDIGRNAVDAFRVNVIHARQQVRSPVTNIARTSFFHVKRSNIWLAAVTKQNVNAAMVFEFLYKMCDVMAAYFGKISEENIKNNFVLIYELLDEILDFGYPQNSETGALKTFITQQGIKSQHQTKEEQSQITSQVTGQIGWRREGIKYRRNELFLDVLESVNLLMSPQGQVLSAHVSGRVVMKSYLSGMPECKFGMNDKIVIEKQGKGTADETSKSGKQSIAIDDCTFHQCVRLSKFDSERSISFIPPDGEFELMRYRTTKDIILPFRVIPLVREVGRTKLEVKVVIKSNFKPSLLAQKIEVRIPTPLNTSGVQVICMKGKAKYKASENAIVWKIKRMAGMKESQISAEIELLPTNDKKKWARPPISMNFEVPFAPSGLKVRYLKVFEPKLNYSDHDVIKWVRYIGRSGIYETRC
# partner: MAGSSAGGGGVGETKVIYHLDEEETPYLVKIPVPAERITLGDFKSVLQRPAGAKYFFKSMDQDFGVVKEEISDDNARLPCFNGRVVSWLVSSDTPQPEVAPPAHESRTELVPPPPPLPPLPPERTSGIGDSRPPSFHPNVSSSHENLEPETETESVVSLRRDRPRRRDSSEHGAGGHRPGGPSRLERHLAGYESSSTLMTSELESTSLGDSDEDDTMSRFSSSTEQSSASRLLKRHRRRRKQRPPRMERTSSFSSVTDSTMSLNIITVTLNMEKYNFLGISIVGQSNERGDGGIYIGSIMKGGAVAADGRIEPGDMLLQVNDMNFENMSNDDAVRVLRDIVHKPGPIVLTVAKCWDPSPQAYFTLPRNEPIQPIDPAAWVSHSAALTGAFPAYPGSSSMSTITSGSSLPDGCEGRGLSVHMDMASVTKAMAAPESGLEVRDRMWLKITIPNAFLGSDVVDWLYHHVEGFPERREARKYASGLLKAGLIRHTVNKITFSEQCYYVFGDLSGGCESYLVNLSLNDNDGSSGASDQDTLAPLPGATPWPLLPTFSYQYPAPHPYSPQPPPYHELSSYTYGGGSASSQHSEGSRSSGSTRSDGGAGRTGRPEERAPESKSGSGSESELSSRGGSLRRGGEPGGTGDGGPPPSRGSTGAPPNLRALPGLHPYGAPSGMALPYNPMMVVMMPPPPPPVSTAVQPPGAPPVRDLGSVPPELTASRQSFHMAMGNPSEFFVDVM
# B2: Segment polarity protein dishevelled homolog DVL-2 (Mus musculus), Q60838 (parent)
# chain: B1 partner
# Variants of: B1
# Details: with dvl2_mouse Dvl2, Q60838
row,Variant,effect of a mutation on the interaction
1,MIGGLFIYNHKGEVLISRVYRDDIGRNAVDAFRVNVIHARQQVRSPVTNIARTSFFHVKRSNIWLAAVTKQNVNAAMVFEFLYKMCDVMAAYFGKISEENIKNNFVLIYELLDEILDFGYPQNSETGALKTFITQQGIKSQHQTKEEQSQITSQVTGQIGWRREGIKYRRNELFLDVLESVNLLMSPQGQVLSAHVSGRVVMKSYLSGMPECKFGMNDKIVIEKQGKGTADETSKSGKQSIAIDDCTFHQCVRLSKFDSERSISFIPPDGEFELMRYRTTKDIILPFRVIPLVREVGRTKLEVKVVIKSNFKPSLLAQKIEVRIPTPLNTSGVQVICMKGKAKYKASENAIVWKIKRMAGMKESQISAEIELLPTNDKKKWARPPISMNFEVPFAPSGLKVRYLKVFEPKLNYSDHDVIKAVRYIGRSGIYETRC [W421A],disrupting interaction
2,MIGGLFIYNHKGEVLISRVYRDDIGRNAVDAFRVNVIHARQQVRSPVTNIARTSFFHVKRSNIWLAAVTKQNVNAAMVFEFLYKMCDVMAAYFGKISEENIKNNFVLIYELLDEILDFGYPQNSETGALKTFITQQGIKSQHQTKEEQSQITSQVTGQIGWRREGIKYRRNELFLDVLESVNLLMSPQGQVLSAHVSGRVVMKSYLSGMPACDFGMNDKIVIEKQGKGTADETSKSGKQSIAIDDCTFHQCVRLSKFDSERSISFIPPDGEFELMRYRTTKDIILPFRVIPLVREVGRTKLEVKVVIKSNFKPSLLAQKIEVRIPTPLNTSGVQVICMKGKAKYKASENAIVWKIKRMAGMKESQISAEIELLPTNDKKKWARPPISMNFEVPFAPSGLKVRYLDVAEPKLNYSDHDVIKWVRYIGRSGIYETRC [E211A;K213D;K405D;F407A],decreasing interaction
3,MIGGLFIYNHKGEVLISRVYRDDIGRNAVDAFRVNVIHARQQVRSPVTNIARTSFFHVKRSNIWLAAVTKQNVNAAMVFEFLYKMCDVMAAYFGKISEENIKNNFVLIYELLDEILDFGYPQNSETGALKTFITQQGIKSQHQTKEEQSQITSQVTGQIGWRREGIKYRRNELFLDVLESVNLLMSPQGQVLSAHVSGRVVMKSYLSGMPACDFGMNDKIVIEKQGKGTADETSKSGKQSIAIDDCTFHQCVRLSKFDSERSISFIPPDGEFELMRYRTTKDIILPFRVIPLVREVGRTKLEVKVVIKSNFKPSLLAQKIEVRIPTPLNTSGVQVICMKGKAKYKASENAIVWKIKRMAGMKESQISAEIELLPTNDKKKWARPPISMNFEVPFAPSGLKVRYLDVFEPKLNYSDHDVIKWVRYIGRSGIYETRC [E211A;K213D;K405D],decreasing interaction
4,MIGGLFIYNHKGEVLISRVYRDDIGRNAVDAFRVNVIHARQQVRSPVTNIARTSFFHVKRSNIWLAAVTKQNVNAAMVFEFLYKMCDVMAAYFGKISEENIKNNFVLIYELLDEILDFGYPQNSETGALKTFITQQGIKSQHQTKEEQSQITSQVTGQIGWRREGIKYRRNELFLDVLESVNLLMSPQGQVLSAHVSGRVVMKSYLSGMPECDFGMNDKIVIEKQGKGTADETSKSGKQSIAIDDCTFHQCVRLSKFDSERSISFIPPDGEFELMRYRTTKDIILPFRVIPLVREVGRTKLEVKVVIKSNFKPSLLAQKIEVRIPTPLNTSGVQVICMKGKAKYKASENAIVWKIKRMAGMKESQISAEIELLPTNDKKKWARPPISMNFEVPFAPSGLKVRYLDVFEPKLNYSDHDVIKWVRYIGRSGIYETRC [K213D;K405D],decreasing interaction

# Variants of: B2
# Details: with ap2b1_bovin AP2B1, P63009
# ap2b1_bovin AP2B1, P63009, sequence (P63009 whole entry): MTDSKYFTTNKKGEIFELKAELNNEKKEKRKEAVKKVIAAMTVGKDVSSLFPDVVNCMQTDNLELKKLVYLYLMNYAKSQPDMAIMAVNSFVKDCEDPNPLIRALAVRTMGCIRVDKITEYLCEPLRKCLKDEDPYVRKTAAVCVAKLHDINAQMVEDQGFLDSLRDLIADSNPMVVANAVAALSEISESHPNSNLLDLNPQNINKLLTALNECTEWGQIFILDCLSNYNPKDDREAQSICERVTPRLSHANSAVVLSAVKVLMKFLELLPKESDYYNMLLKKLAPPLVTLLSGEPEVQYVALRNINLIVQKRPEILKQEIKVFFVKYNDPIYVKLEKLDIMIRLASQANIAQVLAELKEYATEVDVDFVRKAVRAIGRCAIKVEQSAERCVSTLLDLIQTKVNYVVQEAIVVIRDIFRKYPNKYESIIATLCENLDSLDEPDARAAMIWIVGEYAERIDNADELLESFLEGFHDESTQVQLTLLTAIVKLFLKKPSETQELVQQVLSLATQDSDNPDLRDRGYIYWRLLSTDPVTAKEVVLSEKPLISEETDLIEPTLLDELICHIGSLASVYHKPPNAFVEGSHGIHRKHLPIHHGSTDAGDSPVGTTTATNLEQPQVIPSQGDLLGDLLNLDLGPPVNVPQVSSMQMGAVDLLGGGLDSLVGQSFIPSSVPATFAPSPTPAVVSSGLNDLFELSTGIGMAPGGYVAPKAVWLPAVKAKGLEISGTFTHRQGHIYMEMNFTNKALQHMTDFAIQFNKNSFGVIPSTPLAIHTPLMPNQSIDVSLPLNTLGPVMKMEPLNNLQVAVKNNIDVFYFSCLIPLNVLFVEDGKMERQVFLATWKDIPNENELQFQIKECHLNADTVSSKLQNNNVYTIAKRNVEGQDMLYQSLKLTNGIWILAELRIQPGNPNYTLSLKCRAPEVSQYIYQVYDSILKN
row,Variant,effect of a mutation on the interaction
1,Y561A,disrupting interaction

# Variants of: B2
# Details: with ap2m1_rat Ap2m1, P84092
row,Variant,effect of a mutation on the interaction
1,Y561A,disrupting interaction
2,D441K;N451A,decreasing interaction
3,R489A,decreasing interaction
4,D441K,decreasing interaction
5,D441K;R489A,decreasing interaction
6,N451A,decreasing interaction
7,K446A,decreasing interaction strength
8,K446M,decreasing interaction strength
9,D441K;N451A;R489A,decreasing interaction
